The values that follow are results of earlier work, collected in PMC4918944.

What is called Kd is the free concentration of one partner at which half of the binding sites on the other are occupied at equilibrium, for simple one-to-one binding.

In this data set the target is SecY (Bacillus subtilis) (UniProt P16336).
UniProt P16336, sequence (P16336 whole entry): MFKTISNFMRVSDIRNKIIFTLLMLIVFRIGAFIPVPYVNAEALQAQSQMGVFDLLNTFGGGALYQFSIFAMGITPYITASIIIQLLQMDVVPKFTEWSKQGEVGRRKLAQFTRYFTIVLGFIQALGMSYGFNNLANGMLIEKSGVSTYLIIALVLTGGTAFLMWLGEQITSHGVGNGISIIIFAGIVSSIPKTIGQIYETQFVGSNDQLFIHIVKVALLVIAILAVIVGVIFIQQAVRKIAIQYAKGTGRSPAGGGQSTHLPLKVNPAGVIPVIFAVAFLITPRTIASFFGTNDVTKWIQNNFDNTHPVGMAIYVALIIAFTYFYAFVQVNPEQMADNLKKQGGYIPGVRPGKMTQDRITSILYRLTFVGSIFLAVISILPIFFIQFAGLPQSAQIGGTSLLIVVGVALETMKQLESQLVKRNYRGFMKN

In the case of SecA (from UniProt P28366), the equilibrium dissociation constant (Kd) is 4 nM.
